Key:
Test in all cases: filter binding
[1] = system: 30S ribosomal subunit (Escherichia coli MRE600); conditions: Filter binding: 50 nM 32P-RNA in TAKM5 buffer (composition not given), 15 min at 37 C, nitrocellulose filtration, fluorescence titrations: pyrene, ex 341 nm …
[2] = system: 40S ribosomal subunit ((HeLa cells)); conditions: Filter binding: 50 nM 32P-RNA in TAKM5 buffer (composition not given), 15 min at 37 C, nitrocellulose filtration; fluorescence titrations: pyrene, ex 341 nm …
[3] = system: 70S ribosome (Escherichia coli MRE600); conditions: Filter binding: 50 nM 32P-RNA in TAKM5 buffer (composition not given), 15 min at 37 C, nitrocellulose filtration, fluorescence titrations: pyrene, ex 341 nm …

| Sequence | Kd [1] | Kd [3] | further results |
| --- | --- | --- | --- |
| AAAGCAAAAAUGUGAUCUUGCUUGUAAAUACAAUUUUGAGAGGUUAAUAAAUUACAAGUAGUGCUAUUUUUGUAUUUAGGUUAGCUAUUUAGCUUUACGUUCCAGGAUGCCUAGUGGCAGCCCCACAAUAUCCAGGAAGCCCUCUCUGCGGUUUUUCAGAUUAGGUAGUCGAAAAACCUAAGAAAUUUACCUGCUACAUUUCAAGAUAAA [CrPV IGR IRES WT] | 110 nM | 69 nM | Kd [2]: 14 nM |
| AAAGCAAAAAUGUGAUCUUGCUUGUAAAUACAAUUUUGAGAGGUUAAUAAAUUACAAGUAGUGCUAUUUUUGUAUUUAGGUUAGCUAUUUAGCUUUACGUUCCAGGAUGCCUAGUGGCAGCCCCACAAUAUCCAGGAAGCCCUCUCUGCGGUUUUUCAGAUUAGGUAGUCGAAAAACCUAAGAAAUUUAGGUGCUACAUUUCAAGAUAAA [CrPV IGR IRES PK1_K/O] | 55 nM | 92 nM | Kd [2]: 4 nM |
| AAAGCAAAAAUGUGAUCUUGCUUGUAAAUACAAUUUUGAGAGGUUAAUAAAUUACAAGUAGUGCUAUUUUUGUAUUUAGGUUAGCUAUUUAGCUUUACGUUCCAGGAUGCCUAGUGGCAGCCCCACAAUAUCCAGGAAGCGGAGAGUGCGGUUUUUCAGAUUAGGUAGUCGAAAAACCUAAGAAAUUUACCUGCUACAUUUCAAGAUAAA [CrPV IGR IRES PK2_K/O] | 74 nM | 100 nM | – |
| AAAGCAAAAAUGUGAUCUUGCUUGUAAAUACAAUUUUGAGAGGUUAAUAAAUUACAAGUAGUGCUAUUUUUGUAUUUAGGUUAGCUAUUUAGCUUUACGUUCCAGGAUGCCUAGUGGCAGCCCGUGAAUAUCCAGGAAGCCCUCUCUGCGGUUUUUCAGAUUAGGUAGUCGAAAAACCUAAGAAAUUUACCUGCUACAUUUCAAGAUAAA [CrPV IGR IRES PK3_K/O] | 48 nM | 90 nM | – |
| AAAGCAAAAAUGUGAUCUUGCUUGUAAAUACAAUUUUGAGAGGUUAAUAAAUUACAAGUAGUGCUAUUUUUGUAUUUAGGUUAGCUAUUUAGCUUUACGUUCCAGGAUGCCUAGUGGCAGCCGGUGAAUAUCCAGGAAGCCCUCUCUGCGGUUUUUCAGAUUAGGUAGUCGAAAAACCUAAGAAAUUUAGGUGCUACAUUUCAAGAUAAA [CrPV IGR IRES PK1+3_K/O] | 52 nM | 78 nM | – |
| AAAGCAAAAAUGUGAUCUUGCUUGUAAAUACAAUUUUGAGAGGUUAAUAAAUUACAAGUAGUGCUAUUUUUGUAUUUAGGUUAGCUAUUUAGCUUUACGUUCCAGGAUGCCUAGUGGCAGCCGGUGAAUAUCCAGGAAGCGGAGAGUGCGGUUUUUCAGAUUAGGUAGUCGAAAAACCUAAGAAAUUUAGGUGCUACAUUUCAAGAUAAA [CrPV IGR IRES PK1+2+3_K/O] | 48 nM | 79 nM | – |
| GAGCGGUUUCUGGAAUACUAUAUGUAAGUAUAGUGUUCUGGAGGCAUCAUUCUAUGGUUACCCAUCAUUAGAGGAAAUUUCCAAUAAACUCUGGUGUAAGGCUUAGAGUGAUGGUCGAGGUGCCCUAUUUAGGGUGAGGAGCCUCGGUGGCAGCCCCACCAAAUCCUCUAUUGGAUAGGAACAGCUGUACUGGGCAGUUACAGCAGUCGUAUGGUAACACAUGCGGCGUUCCGAAAUACCAUGCCUGGCGAUUCACAACAAGAA [IAPV IGR IRES WT] | 93 nM | 50 nM | – |
| GAGCGGUUUCUGGAAUACUAUAUGUAAGUAUAGUGUUCUGGAGGCAUCAUUCUAUGGUUACCCAUCAUUAGAGGAAAUUUCCAAUAAACUCUGGUGUAAGGCUUAGAGUGAUGGUCGAGGUGCCCUAUUUAGGGUGAGGAGCCUCGGUGGCAGCCCCACCAAAUCCUCUAUUGGAUAGGAACAGCUGUACUGGGCAGUUACAGCAGUCGUAUGGUAACACAUGCGGCGUUCCGAAAUACCAUGGGUGGCGAUUCACAACAAGAA [IAPV IGR IRES PK1_K/O] | 87 nM | 67 nM | – |
| GAGCGGUUUCUGGAAUACUAUAUGUAAGUAUAGUGUUCUGGAGGCAUCAUUCUAUGGUUACCCAUCAUUAGAGGAAAUUUCCAAUAAACUCUGGUGUAAGGCUUAGAGUGAUGGUCGAGGUGCCCUAUUUAGGGUGAGGAGCCUCGGUGGCAGCCCCACCAAAUCCUCUUAACCAUAGGAACAGCUGUACUGGGCAGUUACAGCAGUCGUAUGGUAACACAUGCGGCGUUCCGAAAUACCAUGCCUGGCGAUUCACAACAAGAA [IAPV IGR IRES PK2_K/O] | 81 nM | 59 nM | – |
| GAGCGGUUUCUGGAAUACUAUAUGUAAGUAUAGUGUUCUGGAGGCAUCAUUCUAUGGUUACCCAUCAUUAGAGGAAAUUUCCAAUAAACUCUGGUGUAAGGCUUAGAGUGAUGGUCGAGGUGCCCUAUUUAGGGUGAGGAGCCUCGGUGGCAGCCCCUGGAAAUCCUCUAUUGGAUAGGAACAGCUGUACUGGGCAGUUACAGCAGUCGUAUGGUAACACAUGCGGCGUUCCGAAAUACCAUGCCUGGCGAUUCACAACAAGAA [IAPV IGR IRES PK3_K/O] | 103 nM | 59 nM | – |
| GAGCGGUUUCUGGAAUACUAUAUGUAAGUAUAGUGUUCUGGAGGCAUCAUUCUAUGGUUACCCAUCAUUAGAGGAAAUUUCCAAUAAACUCUGGUGUAAGGCUUAGAGUGAUGGUCGAGGUGCCCUAUUUAGGGUGAGGAGCCUCGGUGGCAGCCCCUGGAAAUCCUCUAUUGGAUAGGAACAGCUGUACUGGGCAGUUACAGCAGUCGUAUGGUAACACAUGCGGCGUUCCGAAAUACCAUGGGUGGCGAUUCACAACAAGAA [IAPV IGR IRES PK1+3_K/O] | 80 nM | 65 nM | – |
| GAGCGGUUUCUGGAAUACUAUAUGUAAGUAUAGUGUUCUGGAGGCAUCAUUCUAUGGUUACCCAUCAUUAGAGGAAAUUUCCAAUAAACUCUGGUGUAAGGCUUAGAGUGAUGGUCGAGGUGCCCUAUUUAGGGUGAGGAGCCUCGGUGGCAGCCCCUGGAAAUCCUCUUAACCAUAGGAACAGCUGUACUGGGCAGUUACAGCAGUCGUAUGGUAACACAUGCGGCGUUCCGAAAUACCAUGGGUGGCGAUUCACAACAAGAA [IAPV IGR IRES PK1+2+3_K/O] | 73 nM | 72 nM | – |
| GCGCGGAUGCUCAGUCGGUAGAGCAGGGGAUUGAAAAUCCCCGUGUCCUUGGUUCGAUUCCGAGUCCGCGCACCA [tRNAPhe] | – | – | Kd ([1]; only 10% bound): 35 nM |
| GGAUACGCACAAUAAGGCUAUUGUACGUAUGCAAAUUAAUAAUAAAGGAGAGUAGCAAUGUCAUUCGAAUUACCUGCACUACCAUAUGCUAAAGAUGCUCUGGCACCGCACAUUUCUGCGG [sodB 5' UTR RNA] | – | – | Kd ([1]; 41% bound): 13 nM; Kd ([3]; 56% bound): 47 nM |
| GGUACGAGUAGAAUACUGCCGCUUAACGUCGCGUAAAUUGUUUAACACUUUGCGUAACGUACACUGGGAUCGCUGAAUUAGAGAUCGGCGUCCUUUCAUUCUAUAUACUUUGGAGUUUUAAAAUGUCUCAAGUACUGAAGCAACAGCUAAAAUCGUUUCUGAGUUUGGUCGUGACGCAAACGACACC [rpsO 5' UTR RNA] | – | – | Kd ([1]; 39% bound): 10 nM; Kd ([3]; 44% bound): 94 nM |
